Read-outs that look alike come from different tables or passages of the source.
Experiments:
[1] = molecular target: LSD1 (residues 151–852), lysine-specific demethylase 1 (human) (UniProt O60341); test: ITC
[2] = molecular target: LSD1 (residues 151–852), lysine-specific demethylase 1 (human) (UniProt O60341); test: ITC; remark: listed apart in the source
[3] = molecular target: LSD1 (residues 151–852), lysine-specific demethylase 1 (human) (UniProt O60341); test: ITC; remark: listed apart in the source
[4] = molecular target: LSD1 (residues 151–852), lysine-specific demethylase 1 (human) (UniProt O60341); test: ITC; remark: listed apart in the source
[5] = molecular target: LSD1 (residues 151–852), lysine-specific demethylase 1 (human) (UniProt O60341); test: ITC; remark: listed apart in the source
[6] = molecular target: LSD1 (residues 151–852), lysine-specific demethylase 1 (human) (UniProt O60341); test: ITC; remark: listed apart in the source
[7] = molecular target: LSD1 (residues 151–852), lysine-specific demethylase 1 (human) (UniProt O60341); test: ITC; remark: listed apart in the source
[8] = molecular target: LSD1 (residues 151–852), lysine-specific demethylase 1 (human) (UniProt O60341); test: ITC; remark: listed apart in the source
[9] = molecular target: LSD1 (residues 151–852), lysine-specific demethylase 1 (human) (UniProt O60341); test: ITC; remark: listed apart in the source
[10] = molecular target: LSD1 (residues 151–852), lysine-specific demethylase 1 (human) (UniProt O60341); test: ITC; remark: listed apart in the source
[11] = molecular target: LSD1 (residues 151–852), lysine-specific demethylase 1 (human) (UniProt O60341); test: ITC; remark: listed apart in the source
[12] = molecular target: LSD1 (residues 151–852), lysine-specific demethylase 1 (human) (UniProt O60341); test: ITC; remark: listed apart in the source
[13] = molecular target: LSD1 (residues 151–852), lysine-specific demethylase 1 (human) (UniProt O60341); test: ITC; remark: listed apart in the source
[14] = molecular target: CoREST (RCOR1) residues 286-482 (linker region + SANT2 domain) (UniProt Q9UKL0); test: ITC; conditions: pH 7.4, 25 °C, no added salt, not stated numerically
[15] = molecular target: CoREST (RCOR1) residues 286-482 (linker region + SANT2 domain) (UniProt Q9UKL0); test: ITC; conditions: pH 7.4, no added salt, not stated numerically, 50 mM sodium phosphate
[16] = molecular target: CoREST (RCOR1) residues 286-482 (linker region + SANT2 domain) (UniProt Q9UKL0); test: SPR; conditions: pH 7.4; no added salt; not stated numerically; 50 mM sodium phosphate
[17] = molecular target: CoREST (RCOR1) residues 286-482 (linker region + SANT2 domain) (UniProt Q9UKL0); test: ITC; conditions: pH 7.4; 25 °C; no added salt; not stated numerically; 50 mM sodium phosphate

Chain of UniProt Q9UKL0 (Q9UKL0 whole entry, the tested form may be a part): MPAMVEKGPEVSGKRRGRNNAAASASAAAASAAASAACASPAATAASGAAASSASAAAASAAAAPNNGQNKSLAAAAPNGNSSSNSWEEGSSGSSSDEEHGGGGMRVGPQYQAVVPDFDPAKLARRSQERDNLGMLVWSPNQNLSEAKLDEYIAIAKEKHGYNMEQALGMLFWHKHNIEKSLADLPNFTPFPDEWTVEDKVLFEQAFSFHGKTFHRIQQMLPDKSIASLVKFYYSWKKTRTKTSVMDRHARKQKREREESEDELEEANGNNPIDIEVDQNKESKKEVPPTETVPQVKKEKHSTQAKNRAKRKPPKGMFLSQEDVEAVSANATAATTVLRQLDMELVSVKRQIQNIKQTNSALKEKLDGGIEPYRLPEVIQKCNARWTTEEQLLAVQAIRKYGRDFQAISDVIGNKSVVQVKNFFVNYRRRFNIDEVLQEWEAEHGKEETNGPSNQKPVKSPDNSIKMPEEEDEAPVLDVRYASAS

“CoREST^286–482 (linker region and SANT2 domain) (domain or fragment)” gave a Kd [1] of 21.7 nM, a dH [1] of -4.24 kcal/mol and a stoichiometry N [1] of 0.99. For the same substance, the Kd [2] was 8.54 nM, the dH (ΔHcal) [2] was -10.9 kcal/mol and the stoichiometry N [2] was 0.92. The Ka [3] was 6.29e+07 M⁻¹, the Kd [3] was 15.9 nM and the dH [3] was -21.3 kcal/mol. The stoichiometry N [3] was 1.14, the Kd [4] was 5.84 nM and the dH (ΔHcal) [4] was -17.4 kcal/mol. The stoichiometry N [4] was 0.91, the Kd [5] was 6.75 nM and the dH [5] was -12.9 kcal/mol. For the same substance, the stoichiometry N [5] was 1, the Kd [6] was 11.7 nM and the dH (ΔHcal) [6] was -15.2 kcal/mol. The stoichiometry N [6] was 1.01, the Kd [7] was 4.18 nM and the dH [7] was -8.56 kcal/mol. For the same substance, the stoichiometry N [7] was 0.9, the Kd [8] was 3.7 nM and the dH [8] was -16.1 kcal/mol. For the same substance, the stoichiometry N [8] was 1.03, the Kd [9] was 17.3 nM and the dH (ΔHcal) [9] was -19.5 kcal/mol. The stoichiometry N [9] was 1.11, the Kd [10] was 8.03 nM and the dH [10] was -20.2 kcal/mol. For the same substance, the stoichiometry N [10] was 0.97, the Kd [11] was 21.2 nM and the dH (ΔHcal) [11] was -12.6 kcal/mol. The stoichiometry N [11] was 0.93, the Kd [12] was 3.18 nM and the dH [12] was -12.1 kcal/mol. The stoichiometry N [12] was 1.01, the Kd [13] was 7.66 nM and the dH [13] was -15.6 kcal/mol. It also gave a stoichiometry N [13] of 1.

“LSD1 (KDM1A, lysine-specific histone demethylase 1) residues 151-852” was tested, and the ΔG ([14]; 50 mM ACES) was -10.1 kcal/mol, the ΔHcal ([14]; 50 mM ACES) was -12.6 kcal/mol and the ΔG ([14]; 50 mM HEPES) was -10.9 kcal/mol. For the same substance, the ΔHcal ([14]; 50 mM HEPES) was -15.2 kcal/mol, the ΔG ([14]; 50 mM PIPES) was -11.2 kcal/mol and the ΔHcal ([14]; 50 mM PIPES) was -17.4 kcal/mol. For the same substance, the ΔG ([14]; 50 mM Tris) was -10.8 kcal/mol, the ΔHcal ([14]; 50 mM Tris) was -10.9 kcal/mol and the ΔG ([14]; 50 mM sodium phosphate) was -10.6 kcal/mol. It also gave a ΔHcal ([14]; 50 mM sodium phosphate) of -19.5 kcal/mol, a ΔG ([15]; 15 °C) of -10.1 kcal/mol and a Ka ([15]; 25 °C) of 6.29e+07 M⁻¹. It also gave a ΔG ([15]; 25 °C) of -10.6 kcal/mol, a ΔH ([15]; 25 °C) of -21.3 kcal/mol and a ΔG ([15]; 30 °C) of -11.7 kcal/mol. The ΔG ([15]; 35 °C) was -11.4 kcal/mol, the koff [16] was 7.78e-05 s⁻¹ and the kon [16] was 56300 M⁻¹ s⁻¹. The ΔG [17] was -11.6 kcal/mol and the ΔH [17] was -12.1 kcal/mol.

“linker region^293–380 of CoREST (domain or fragment)” gave a Kd [3] of 7.78 nM, a dH [3] of -13.5 kcal/mol and a stoichiometry N [3] of 0.96.
